In patent US20210070876A1 (LES LABORATOIRES SERVIER, published 2021):

T1: human CD73 expressed on cells (human, UniProt P21589 27-549)
T1 construct: also called 5'-NT; human CD73 on CHO-S cells
T1 sequence: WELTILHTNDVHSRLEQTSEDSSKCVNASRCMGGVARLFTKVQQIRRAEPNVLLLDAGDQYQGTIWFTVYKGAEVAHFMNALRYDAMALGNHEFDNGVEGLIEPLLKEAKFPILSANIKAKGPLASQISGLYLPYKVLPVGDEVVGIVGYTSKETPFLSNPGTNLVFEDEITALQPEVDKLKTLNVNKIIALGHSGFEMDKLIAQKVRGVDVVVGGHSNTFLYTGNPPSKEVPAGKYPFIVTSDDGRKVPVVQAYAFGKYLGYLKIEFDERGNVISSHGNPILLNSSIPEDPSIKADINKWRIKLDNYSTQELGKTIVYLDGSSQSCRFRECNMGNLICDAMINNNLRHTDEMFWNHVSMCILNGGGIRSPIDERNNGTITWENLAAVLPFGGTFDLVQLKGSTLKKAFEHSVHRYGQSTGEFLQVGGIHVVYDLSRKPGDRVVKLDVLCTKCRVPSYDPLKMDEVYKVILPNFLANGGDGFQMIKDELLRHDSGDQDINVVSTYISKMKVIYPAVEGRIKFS

T2: His-tagged human CD73 ECD (human, UniProt P21589 27-549)
T2 construct: runs as a homodimer of about 124-125 kDa in SEC-MALS; also called CD73-His; CD73-His ECD antigen
T2 sequence: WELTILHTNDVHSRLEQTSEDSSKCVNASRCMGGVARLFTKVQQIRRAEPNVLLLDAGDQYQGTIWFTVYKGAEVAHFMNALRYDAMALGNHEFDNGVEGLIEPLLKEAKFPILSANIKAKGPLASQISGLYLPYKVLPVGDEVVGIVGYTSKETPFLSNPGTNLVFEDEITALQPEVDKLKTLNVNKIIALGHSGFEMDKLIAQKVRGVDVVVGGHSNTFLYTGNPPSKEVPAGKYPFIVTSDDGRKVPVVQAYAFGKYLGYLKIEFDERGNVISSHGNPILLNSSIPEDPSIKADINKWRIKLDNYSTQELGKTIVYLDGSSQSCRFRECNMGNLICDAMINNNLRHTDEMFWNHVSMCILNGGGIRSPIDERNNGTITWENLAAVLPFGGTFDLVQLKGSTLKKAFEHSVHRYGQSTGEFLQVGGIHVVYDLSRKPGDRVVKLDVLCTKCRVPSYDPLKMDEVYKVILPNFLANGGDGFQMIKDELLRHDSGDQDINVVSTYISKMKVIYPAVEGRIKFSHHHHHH

T3: His-tagged cynomolgus CD73 ECD (cynomolgus monkey (Macaca fascicularis))
T3 chain: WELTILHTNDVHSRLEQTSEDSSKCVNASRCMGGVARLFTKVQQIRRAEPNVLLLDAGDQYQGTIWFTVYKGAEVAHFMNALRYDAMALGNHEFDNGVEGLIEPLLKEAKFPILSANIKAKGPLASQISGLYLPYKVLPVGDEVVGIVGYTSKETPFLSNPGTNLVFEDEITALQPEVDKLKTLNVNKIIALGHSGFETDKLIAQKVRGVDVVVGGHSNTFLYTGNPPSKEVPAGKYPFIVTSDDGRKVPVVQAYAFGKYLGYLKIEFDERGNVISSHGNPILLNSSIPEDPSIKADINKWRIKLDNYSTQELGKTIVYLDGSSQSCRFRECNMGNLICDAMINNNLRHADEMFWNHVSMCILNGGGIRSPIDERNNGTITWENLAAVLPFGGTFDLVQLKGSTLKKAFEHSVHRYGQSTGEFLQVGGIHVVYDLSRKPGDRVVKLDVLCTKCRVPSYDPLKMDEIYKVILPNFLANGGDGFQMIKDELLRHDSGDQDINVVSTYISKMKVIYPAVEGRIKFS


Experiments:
[1] = molecular target: T1, human CD73 expressed on cells; assay: flow cytometry on CHO-S cells transiently expressing human CD73, AF647 anti-human IgG (H+L) secondary, GeoMean
Experimental: The anti-CD73 antibodies were incubated with the hamster CHO-S cell line transiently expressing human or cynomolgus CD73 for 30 minutes at 4° C. The cells were washed twice and subsequently incubated for an additional 20 minutes with AF647-conjugated secondary anti-human IgG (H+L) antibody. After the washing step, antibody binding was detected using the high-throughput flow cytometer iQue Screener PLUS (Sartorius) measuring the GeoMean of AF647 signal in each well. Every concentration was assayed in triplicate and a 12-point titration curve was generated for each antibody.

[2] = molecular target: T2, His-tagged human CD73 ECD; assay: SEC-MALS, mAb:CD73 1:1
Experimental: (§1) Anti-CD73 antibodies and His-tagged CD73 were analyzed in different ratios as well as individually to analyze the size of complexes formed between CD73 homodimer and anti-CD73 antibodies. Samples were prepared by mixing […] of CD73-His with 900, 450, 90 or 0 μmol of antibody diluted into PBS, pH 7.4. Samples were incubated for 30 min at room temperature followed by separation using a UHPLC UltiMate 3000 (Thermo Scientific) and SEC X-Bridge column (Waters) at a flow rate of 1.2 mL/min. Sample running buffer was 0.01 M Citrate, 250 mM L-Arginine.HCl, pH 6.0. Following HPLC separation, all samples were analyzed using a MiniDAWN TREOS MALS detector (Wyatt) and Optilab T-rEX refractive index detector (Wyatt). Data plots were generated using Graph Pad Prism.

[3] = molecular target: T3, His-tagged cynomolgus CD73 ECD; assay: SPR, mAb captured, His-tagged CD73 ECD injected
Experimental: (§2) Kinetic binding analysis of anti-CD73 mAbs and Fab fragments was performed by Surface Plasmon Resonance (SPR), using a Continuous Flow Microspotter (CFM, Wasatch Microfluidics, Salt Lake City, US) combined with an IBIS MX96 SPR instrument (IBIS Technologies, The Netherlands). CD73 cDNAs coding for the extracellular domains of human and cynomolgus CD73 were synthesized and each cloned into a vector containing a CMV promoter and either a C-terminal 6× histidine sequence (SEQ ID NO: 45) for His-tagged CD73 ECD, or a human IgG1 Fc sequence (AA P101-K330), resulting in fusion of IgG1 Fc C-terminally to the cloned CD73 ECD. The His-tagged and Fc-fusion constructs were transiently expressed using an ExpiCHO™ expression system and purified either by standard Ni-NTA chromatography or standard MabSelect™ SuRe™ procedures, respectively. Anti-CD73 Fab fragments were generated by digesting full-length IgG1 antibodies with GingisKHAN enzyme, using a kit provided by Genovis (Sweden). Affinities of Fab fragments were measured by capturing Fc-tagged antigens on a G-a-hu-IgG Fc SensEye® for 15 minutes using the CFM. After spotting, the SensEye® was positioned in the IBIS MX96 biosensor and immobilized antigens were fixed by SensEye FixIt kit. Kinetic analysis was performed by injecting monomeric Fab fragments at increasing concentrations from 0.8 nM to 300 nM. After each cycle of Fab fragment injection, the surface was regenerated by 10 mM glycine pH 3, 10% glycerol. Fab association was performed for 15 minutes and antigen dissociation was performed for 15 minutes. Affinities of full-length monoclonal antibodies (mAbs) were measured by capturing mAbs on a G-a-hu-IgG Fc SensEye® (Ssens BV, The Netherlands) for 15 minutes using a Continuous Flow Microspotter (CFM, Wasatch Microfluidics, Salt Lake City, US). After spotting, the SensEye was docked in the IBIS MX96 and spotted mAbs were fixed by SensEye FixIt kit (Ssens BV, The Netherlands). Kinetic analysis was performed by applying a kinetic titration series injecting increasing concentrations of His-tagged antigens from 0.16 nM to 10 nM as 2-fold dilutions. The surface was regenerated before the next cycle of cynomolgus antigen injections by 100 mM H₃PO₄, pH 3. MAb association was performed for 15 minutes and antigen dissociation was performed for 45 minutes.

[4] = molecular target: T2, His-tagged human CD73 ECD; assay: SPR, mAb captured, His-tagged CD73 ECD injected
Experimental: as §2

[5] = molecular target: T2, His-tagged human CD73 ECD; assay: SEC-MALS, mAb:CD73 0.5:1
Experimental: as §1

[6] = molecular target: T2, His-tagged human CD73 ECD; assay: SEC-MALS, mAb:CD73 0.1:1
Experimental: as §1

Row | Binder | binding result [1] | molecular mass of complex, Peak 2 (MW, kDa) [2] | Kd [3] | koff [3] | kon [3] | Kd [4] | koff [4] | kon [4] | molecular mass of complex, Peak 2 (MW, kDa) [5] | molecular mass of complex, Peak 2 (MW, kDa) [6]
1 | antibody 21028 (antibody, human IgG1, kappa, L234A L235A, V domains shown, Fully human IgG1-LALA (L234A/L235A), kappa; germline-corrected (Symplex-corrected) variable domains) VH: EVQLVESGGGLVQPGRSLRLSCAASGFSFDDYAMHWVRQAPGKGLEWVSGISWHSDNIGYADSVKGRFTISRDNAKNSLYLQMNSLRAEDTAFYYCAKDGPRYRGSYYYFDYWGQGTLVTVSS VL: not shown | binds | – | – | – | – | – | – | – | – | –
2 | antibody 21163 (antibody, human IgG1, kappa, L234A L235A, V domains shown, Fully human IgG1-LALA (L234A/L235A), kappa) VH: EVQLVESGGGLVQPGGSLRLSCAASGFSFSTYWMNWVRQAPGKGLEWVANIKQDGSEKYYVDSVKGRFTISRDNAKNSLYLQMNSLRAEDTAVYYCARDISSSWFYYYGMDVWGQGTTVTVSS VL: DIQLTQSPSFLSASVGDRVTITCRASQGISSYLAWYQQKPGKAPKLLIYAASTLQSGVPSRFSGSGSGTEFTLTISSLQPEDFATYYCQQLNSYPPTFGGGTKVEIKR | – | 280 kDa | 0.66 nM | 6.2e-05 s⁻¹ | 100000 M⁻¹ s⁻¹ | 0.91 nM | 5.5e-05 s⁻¹ | 65000 M⁻¹ s⁻¹ | 278 kDa | 279 kDa
3 | antibody 21046 (antibody, human IgG1, kappa, L234A L235A, V domains shown, Fully human IgG1-LALA (L234A/L235A), kappa) VH: EVQLVESGGGLVQPGRSLRLSCVASGFTFDDYAMHWVRQAPGKGLEWVSGISWNSGSIGYADSVKGRFTISRDNAKNSLYLQMNSLRAEDTAFYYCAQGGYAILTALEYWGQGTLVTVSS VL: DIQMTQSPSSLSASVGDRVTITCRASQGISNYLAWFQQKPGKAPKSLIYAASSLQSGVPSKFSGSGSGTDFTLTISSLQPEDFATYYCQQYNSYPLTFGGGTKVEIKR | – | 382 kDa | 0.05 nM | 1.1e-05 s⁻¹ | 210000 M⁻¹ s⁻¹ | 0.04 nM | 8.3e-06 s⁻¹ | 190000 M⁻¹ s⁻¹ | 199 kDa | 969 kDa
